This note sets out measurements from patent US20140363428A1 (Chugai, published 2014).

The labels stand for the following.
B1: IgG1-F1304 (antibody)
heavy: QVQLQESGPGLVKPSETLSLTCAVSGHSISHDHAWSWVRQPPGEGLEWIGFISYSGITNYNPSLQGRVTISRDNSKNTLYLQMNSLRAEDTAVYYCARSLARTTAMDYWGEGTLVTVSSASTKGPSVFPLAPSSKSTSGGTAALGCLVKDYFPEPVTVSWNSGALTSGVHTFPAVLQSSGLYSLSSVVTVPSSSLGTQTYICNVNHKPSNTKVDKKVEPKSCDKTHTCPPCPAPELRGGPKVFLFPPKPKDTLYISREPEVTCVVVDVSHEDPEVKFNWYVDGVEVHNAKTKPREEQYNSTYRVVSVLTVLHQDWLNGKEYKCKVSNKALPAPIEKTISKAKGQPREPQVYTLPPSRDELTKNQVSLTCLVKGFYPSDIAVEWESNGQPENNYKTTPPVLDSDGSFFLYSKLTVDKSRWQQGNVFSCSVMHEALDYHFTKKDLSLSP
light: not shown
notes: EU numbering; copies: 2 + 2
B2: IgG1-F1305 (antibody)
heavy: QVQLQESGPGLVKPSETLSLTCAVSGHSISHDHAWSWVRQPPGEGLEWIGFISYSGITNYNPSLQGRVTISRDNSKNTLYLQMNSLRAEDTAVYYCARSLARTTAMDYWGEGTLVTVSSASTKGPSVFPLAPSSKSTSGGTAALGCLVKDYFPEPVTVSWNSGALTSGVHTFPAVLQSSGLYSLSSVVTVPSSSLGTQTYICNVNHKPSNTKVDKKVEPKSCDKTHTCPPCPAPELRGGPKVFLFPPKPKDTLYISRTPEVTCVVVDVSHEDPEVKFNWYVDGVEVHNAKTKPREEQYNSTYRVVSVLTVLHQDWLNGKEYKCKVSNKALPAPIEKTISKAKGQPREPQVYTLPPSRDELTKNQVSLTCLVKGFYPSDIAVEWESNGQPENNYKTTPPVLDSDGSFFLYSKLTVDKSRWQQGNVFSCSVMHEALDYHVTRKDLSLSP
light: not shown
notes: EU numbering; copies: 2 + 2
B3: IgG1-F1311 (antibody)
heavy: QVQLQESGPGLVKPSETLSLTCAVSGHSISHDHAWSWVRQPPGEGLEWIGFISYSGITNYNPSLQGRVTISRDNSKNTLYLQMNSLRAEDTAVYYCARSLARTTAMDYWGEGTLVTVSSASTKGPSVFPLAPSSKSTSGGTAALGCLVKDYFPEPVTVSWNSGALTSGVHTFPAVLQSSGLYSLSSVVTVPSSSLGTQTYICNVNHKPSNTKVDKKVEPKSCDKTHTCPPCPAPELRGGPKVFLFPPKPKDTLYISRTPEVTCVVVDVSHEDPEVKFNWYVDGVEVHNAKTKPREEQYNSTYRVVSVLTVLHQDWLNGKEYKCKVSNKALPAPIEKTISKAKGQPREPQVYTLPPSRDELTKNQVSLTCLVKGFYPSDIAVEWESNGQPENNYKTTPPVLDSDGSFFLYSKLTVDKSRWQQGNAFACSVMHEALDYHVTQKSLSLSP
light: not shown
notes: EU numbering; copies: 2 + 2
B4: IgG1-F1309 (antibody)
heavy: QVQLQESGPGLVKPSETLSLTCAVSGHSISHDHAWSWVRQPPGEGLEWIGFISYSGITNYNPSLQGRVTISRDNSKNTLYLQMNSLRAEDTAVYYCARSLARTTAMDYWGEGTLVTVSSASTKGPSVFPLAPSSKSTSGGTAALGCLVKDYFPEPVTVSWNSGALTSGVHTFPAVLQSSGLYSLSSVVTVPSSSLGTQTYICNVNHKPSNTKVDKKVEPKSCDKTHTCPPCPAPELRGGPKVFLFPPKPKDTLYISRTPEVTCVVVDVSHEDPEVKFNWYVDGVEVHNAKTKPREEQYNSTYRVVSVLTVLHQDWLNGKEYKCKVSNKALPAPIEKTISKAKGQPREPQVYTLPPSRDELTKNQVSLTCLVKGFYPSDIAVEWESNGQPENNYKTTPPVLDSDGSFFLYSKLTVDKSRWQQGNVFSCSVMHEALHYHVTAKALSLSP
light: not shown
notes: EU numbering; copies: 2 + 2
B5: IgG1-F1308 (antibody)
heavy: QVQLQESGPGLVKPSETLSLTCAVSGHSISHDHAWSWVRQPPGEGLEWIGFISYSGITNYNPSLQGRVTISRDNSKNTLYLQMNSLRAEDTAVYYCARSLARTTAMDYWGEGTLVTVSSASTKGPSVFPLAPSSKSTSGGTAALGCLVKDYFPEPVTVSWNSGALTSGVHTFPAVLQSSGLYSLSSVVTVPSSSLGTQTYICNVNHKPSNTKVDKKVEPKSCDKTHTCPPCPAPELRGGPKVFLFPPKPKDTLYISRTPEVTCVVVDVSHEDPEVKFNWYVDGVEVHNAKTKPREEQYNSTYRVVSVLTVLHQDWLNGKEYKCKVSNKALPAPIEKTISKAKGQPREPQVYTLPPSRDELTKNQVSLTCLVKGFYPSDIAVEWESNGQPENNYKTTPPVLDSDGSFFLYSKLTVDKSRWQQGNLFLCSVMHEALHYHVTQKSLSLSP
light: not shown
notes: EU numbering; copies: 2 + 2
B6: IgG1-F1313 (antibody)
heavy: QVQLQESGPGLVKPSETLSLTCAVSGHSISHDHAWSWVRQPPGEGLEWIGFISYSGITNYNPSLQGRVTISRDNSKNTLYLQMNSLRAEDTAVYYCARSLARTTAMDYWGEGTLVTVSSASTKGPSVFPLAPSSKSTSGGTAALGCLVKDYFPEPVTVSWNSGALTSGVHTFPAVLQSSGLYSLSSVVTVPSSSLGTQTYICNVNHKPSNTKVDKKVEPKSCDKTHTCPPCPAPELRGGPKVFLFPPKPKDTLYISRTPEVTCVVVDVSHEDPEVKFNWYVDGVEVHNAKTKPREEQYNSTYRVVSVLTVLHQDWLNGKEYKCKVSNKALPAPIEKTISKAKGQPREPQVYTLPPSRDELTKNQVSLTCLVKGFYPSDIAVEWESNGQPENNYKTTPPVLDSDGSFFLYSKLTVDKSRWQQGNVFSCSVMHEALDYHVTAKALSLSP
light: not shown
notes: EU numbering; copies: 2 + 2
B7: IgG1-F1314 (antibody)
heavy: QVQLQESGPGLVKPSETLSLTCAVSGHSISHDHAWSWVRQPPGEGLEWIGFISYSGITNYNPSLQGRVTISRDNSKNTLYLQMNSLRAEDTAVYYCARSLARTTAMDYWGEGTLVTVSSASTKGPSVFPLAPSSKSTSGGTAALGCLVKDYFPEPVTVSWNSGALTSGVHTFPAVLQSSGLYSLSSVVTVPSSSLGTQTYICNVNHKPSNTKVDKKVEPKSCDKTHTCPPCPAPELRGGPKVFLFPPKPKDTLYISRTPEVTCVVVDVSHEDPEVKFNWYVDGVEVHNAKTKPREEQYNSTYRVVSVLTVLHQDWLNGKEYKCKVSNKALPAPIEKTISKAKGQPREPQVYTLPPSRDELTKNQVSLTCLVKGFYPSDIAVEWESNGQPENNYKTTPPVLDSDGSFFLYSKLTVDKSRWQQGNVFSCSVMHEALDYHVTLKLLSLSP
light: not shown
notes: EU numbering; copies: 2 + 2
B8: IgG1-F1315 (antibody)
heavy: QVQLQESGPGLVKPSETLSLTCAVSGHSISHDHAWSWVRQPPGEGLEWIGFISYSGITNYNPSLQGRVTISRDNSKNTLYLQMNSLRAEDTAVYYCARSLARTTAMDYWGEGTLVTVSSASTKGPSVFPLAPSSKSTSGGTAALGCLVKDYFPEPVTVSWNSGALTSGVHTFPAVLQSSGLYSLSSVVTVPSSSLGTQTYICNVNHKPSNTKVDKKVEPKSCDKTHTCPPCPAPELLGKPKVFLFPPKPKDTLYISRTPEVTCVVVDVSHEDPEVKFNWYVDGVEVHNAKTKPREEQYNSTYRVVSVLTVLHQDWLNGKEYKCKVSNKALPAPIEKTISKAKGQPREPQVYTLPPSRDELTKNQVSLTCLVKGFYPSDIAVEWESNGQPENNYKTTPPVLDSDGSFFLYSKLTVDKSRWQQGNVFSCSVMHEALHYHVTQKSLSLSP
light: not shown
notes: EU numbering; copies: 2 + 2
B9: IgG1-F1312 (antibody)
heavy: QVQLQESGPGLVKPSETLSLTCAVSGHSISHDHAWSWVRQPPGEGLEWIGFISYSGITNYNPSLQGRVTISRDNSKNTLYLQMNSLRAEDTAVYYCARSLARTTAMDYWGEGTLVTVSSASTKGPSVFPLAPSSKSTSGGTAALGCLVKDYFPEPVTVSWNSGALTSGVHTFPAVLQSSGLYSLSSVVTVPSSSLGTQTYICNVNHKPSNTKVDKKVEPKSCDKTHTCPPCPAPELRGGPKVFLFPPKPKDTLYISRTPEVTCVVVDVSHEDPEVKFNWYVDGVEVHNAKTKPREEQYNSTYRVVSVLTVLHQDWLNGKEYKCKVSNKALPAPIEKTISKAKGQPREPQVYTLPPSRDELTKNQVSLTCLVKGFYPSDIAVEWESNGQPENNYKTTPPVLDSDGSFFLYSKLTVDKSRWQQGNLFLCSVMHEALDYHVTQKSLSLSP
light: not shown
notes: EU numbering; copies: 2 + 2
B10: IgG1-F1310 (antibody)
heavy: QVQLQESGPGLVKPSETLSLTCAVSGHSISHDHAWSWVRQPPGEGLEWIGFISYSGITNYNPSLQGRVTISRDNSKNTLYLQMNSLRAEDTAVYYCARSLARTTAMDYWGEGTLVTVSSASTKGPSVFPLAPSSKSTSGGTAALGCLVKDYFPEPVTVSWNSGALTSGVHTFPAVLQSSGLYSLSSVVTVPSSSLGTQTYICNVNHKPSNTKVDKKVEPKSCDKTHTCPPCPAPELRGGPKVFLFPPKPKDTLYISRTPEVTCVVVDVSHEDPEVKFNWYVDGVEVHNAKTKPREEQYNSTYRVVSVLTVLHQDWLNGKEYKCKVSNKALPAPIEKTISKAKGQPREPQVYTLPPSRDELTKNQVSLTCLVKGFYPSDIAVEWESNGQPENNYKTTPPVLDSDGSFFLYSKLTVDKSRWQQGNVFSCSVMHEALHYHVTLKLLSLSP
light: not shown
notes: EU numbering; copies: 2 + 2
B11: IgG1-F1306 (antibody)
heavy: QVQLQESGPGLVKPSETLSLTCAVSGHSISHDHAWSWVRQPPGEGLEWIGFISYSGITNYNPSLQGRVTISRDNSKNTLYLQMNSLRAEDTAVYYCARSLARTTAMDYWGEGTLVTVSSASTKGPSVFPLAPSSKSTSGGTAALGCLVKDYFPEPVTVSWNSGALTSGVHTFPAVLQSSGLYSLSSVVTVPSSSLGTQTYICNVNHKPSNTKVDKKVEPKSCDKTHTCPPCPAPELRGGPKVFLFPPKPKDTLYISRTPEVTCVVVDVSHEDPEVKFNWYVDGVEVHNAKTKPREEQYNSTYRVVSVLTVLHQDWLNGKEYKCKVSNKALPAPIEKTISKAKGQPREPQVYTLPPSRDELTKNQVSLTCLVKGFYPSDIAVEWESNGQPENNYKTTPPVLDSDGSFFLYSKLTVDKSRWQQGNVFSCSVMHEALDYHVTKKELSLSP
light: not shown
notes: EU numbering; copies: 2 + 2
B12: IgG1-F1307 (antibody)
heavy: QVQLQESGPGLVKPSETLSLTCAVSGHSISHDHAWSWVRQPPGEGLEWIGFISYSGITNYNPSLQGRVTISRDNSKNTLYLQMNSLRAEDTAVYYCARSLARTTAMDYWGEGTLVTVSSASTKGPSVFPLAPSSKSTSGGTAALGCLVKDYFPEPVTVSWNSGALTSGVHTFPAVLQSSGLYSLSSVVTVPSSSLGTQTYICNVNHKPSNTKVDKKVEPKSCDKTHTCPPCPAPELRGGPKVFLFPPKPKDTLYISRTPEVTCVVVDVSHEDPEVKFNWYVDGVEVHNAKTKPREEQYNSTYRVVSVLTVLHQDWLNGKEYKCKVSNKALPAPIEKTISKAKGQPREPQVYTLPPSRDELTKNQVSLTCLVKGFYPSDIAVEWESNGQPENNYKTTPPVLDSDGSFFLYSKLTVDKSRWQQGNAFACSVMHEALHYHVTQKSLSLSP
light: not shown
notes: EU numbering; copies: 2 + 2
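Further: KD calculated from fitted association and dissociation rate constants of the sensorgrams, protein L amine-coupled to the sensor chip, sodium phosphate running buffer with NaCl and Tween20.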

In this test the target is T1, soluble human FcRn (human, UniProt P55899 24-297; P61769 21-119).
T1 construct: Heterodimer of FcRn alpha chain and beta2-microglobulin; also called hFcRn
T1 sequence (P55899 24-297 limits assumed, chain 1 of 2): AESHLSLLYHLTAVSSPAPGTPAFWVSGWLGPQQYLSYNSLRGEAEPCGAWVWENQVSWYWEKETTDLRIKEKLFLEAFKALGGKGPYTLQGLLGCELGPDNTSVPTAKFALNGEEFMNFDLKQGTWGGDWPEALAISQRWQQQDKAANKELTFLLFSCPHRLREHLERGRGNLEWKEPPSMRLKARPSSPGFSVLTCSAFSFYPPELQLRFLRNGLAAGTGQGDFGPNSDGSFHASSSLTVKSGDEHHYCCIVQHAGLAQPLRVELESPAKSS
T1 sequence (P61769 21-119 limits assumed, chain 2 of 2): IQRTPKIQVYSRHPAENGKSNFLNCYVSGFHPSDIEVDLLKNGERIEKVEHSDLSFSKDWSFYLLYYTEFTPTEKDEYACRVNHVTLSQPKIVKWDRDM
Briefly: SPR (Biacore T100), antibody captured by protein L, hFcRn as analyte, pH 7.0, 25 C. (Surface plasmon resonance follows binding to a sensor surface in real time, without labels.)
Experimental: An appropriate amount of protein L (ACTIGEN) was immobilized onto Sensor chip CM4 (GE Healthcare) by the amino coupling method, and the chip was allowed to capture an antibody of interest. Then, diluted FcRn solutions and running buffer (as a reference solution) were injected to allow human FcRn to interact with the antibody captured on the sensor chip. The running buffer used comprised 50 mmol/l sodium phosphate, 150 mmol/l NaCl, and 0.05% (w/v) Tween20 (pH 7.0). FcRn was diluted using each buffer. The chip was regenerated using 10 mmol/l glycine-HCl (pH 1.5). Assays were carried out exclusively at 25 degrees C. The association rate constant ka (1/Ms) and dissociation rate constant kd (1/s), both of which are kinetic parameters, were calculated based on the sensorgrams obtained in the assays, and KD (M) of each antibody for human FcRn was determined from these values. Each parameter was calculated using Biacore T100 Evaluation Software (GE Healthcare).
For orientation: Kd means the free concentration of one partner at which half of the binding sites on the other are occupied at equilibrium, for simple one-to-one binding. Low values mean tighter binding, high ones weaker binding. B1 showed a Kd of 120 nM.

In turn, B2 showed a Kd of 200 nM.

B3 gave a dissociation constant Kd of 170 nM.

Molecule B4 came in with a Kd of 130 nM.

Take B5: the Kd stood at 210 nM. Compared with the last molecule, the Kd is about 1.6-fold higher.

In turn, B6 came in with a Kd of 180 nM.

As for B7, the Kd amounted to 230 nM.

Regarding B8, the Kd amounted to 150 nM. This Kd is about 1.5-fold lower than that of the molecule before.

B9 came in with a Kd of 180 nM. This Kd and that of the molecule before are within 1.5-fold of each other.

On to B10, for which binding was put at a Kd of 230 nM.

For the molecule B11, the Kd was 190 nM. The Kd values of the last two molecules are within 1.5-fold of each other.

B12: the Kd came out at 140 nM.
